Test results taken from patent publication US20160244745A1 (published 2016).

How the values were obtained:
Assay in all cases: yeast display titration; KD, yeast
Rabbit IgG = target: Rabbit IgG
Lysozyme = target: Lysozyme
Goat IgG = target: Goat IgG

Work on KFWATVHSVHGYFEVPVYAETLDEALELAFGQYGNALGYVTRVRP (designed binder) [Rabbit IgG 3.2.3] yielded a Kd (Rabbit IgG) of 1.5 nM.

KFWATVFSYGNLFEVPVYAETLDEALELAEWQYSGAYEYVTRVRP (designed binder) [Lysozyme A0.3.2] gave a Kd (Lysozyme) of roughly 1550 nM.

KFWATVYDYDADYYFEVPVYAETLDEALELAVWRYYSNHSDYLVTRVRP (designed binder) [Goat IgG 2.2.1] gave a Kd (Goat IgG) of 0.2 nM.
